This is an account of results in patent US20090215683A1 (ONCOTHERAPY SCIENCE, published 2009).

Test [1] deals with T1, kinetocore associated 2 (KNTC2), endogenous protein of LC319 lung-cancer cells (human, UniProt O14777 1-642).
T1 construct: Endogenous protein in lysates of the human lung-cancer cell line LC319; Seen as a 75-kDa band and identified by MALDI-TOF mass spectrometry; also called endogenous KNTC2
T1 sequence: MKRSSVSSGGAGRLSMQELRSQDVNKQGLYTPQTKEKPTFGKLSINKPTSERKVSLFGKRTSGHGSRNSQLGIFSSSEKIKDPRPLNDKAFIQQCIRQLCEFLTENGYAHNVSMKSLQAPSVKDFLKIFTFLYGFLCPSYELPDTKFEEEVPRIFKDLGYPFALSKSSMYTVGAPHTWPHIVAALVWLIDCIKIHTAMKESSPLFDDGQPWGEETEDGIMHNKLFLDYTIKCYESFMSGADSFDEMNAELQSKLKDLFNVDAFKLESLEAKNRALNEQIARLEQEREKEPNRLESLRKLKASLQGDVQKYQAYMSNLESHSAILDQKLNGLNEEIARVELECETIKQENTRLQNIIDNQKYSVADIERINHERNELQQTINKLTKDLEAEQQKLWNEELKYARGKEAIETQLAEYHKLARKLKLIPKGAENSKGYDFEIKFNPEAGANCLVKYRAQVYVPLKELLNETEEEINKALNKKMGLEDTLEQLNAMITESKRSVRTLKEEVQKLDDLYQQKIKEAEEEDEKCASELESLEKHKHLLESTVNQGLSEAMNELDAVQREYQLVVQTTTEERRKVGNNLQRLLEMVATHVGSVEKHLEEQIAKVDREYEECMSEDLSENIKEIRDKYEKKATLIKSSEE
The test can be described thus: anti-Flag immunoprecipitation from transfected LC319 cells, immunoblot for KNTC2 (FIG. 2C). On the procedure:
(§1) Cell extracts from lung-cancer cell line LC319, transfected with plasmids expressing eleven deletion-constructs of CDCA1 were pre-cleared by incubation at 4° C. for 1 hour with 100 μl of protein G-agarose beads in final volumes of 2 ml of immunoprecipitation buffer (0.5% NP-40, 50 mM Tris-HCl, 150 mM NaCl) in the presence of proteinase inhibitor. After centrifugation at 1,000 rpm for 5 min at 4° C., the supernatants were incubated at 4° C. with anti-FLAG M2 agarose for 2 hours. After the beads were collected from each sample by centrifugation at 5,000 rpm for 2 min and washed six times with 1 ml of immunoprecipitation buffer, the washed beads were re-suspended in 50 μl of Laemmli sample buffer and boiled for 5 min before the proteins were separated on 10% SDS PAGE gels. Immunoblot was performed using KNTC2 polyclonal antibody (Abcom, Inc.) and anti-FLAG M2 monoclonal antibody respectively (Sigma-Aldrich Co.).
On the technique in general: A western blot detects proteins with antibodies after separation by electrophoresis.

In test [2] the target is T1, kinetocore associated 2 (KNTC2), …. Kind of test: anti-Flag immunoprecipitation from transfected LC319 cells, immunoblot for KNTC2 (FIG. 2D). On the procedure: as §1
For test [3] the target is unchanged. The test can be described thus: anti-Flag immunoprecipitation (FIG. 2C); also immunoprecipitation with anti-KNTC2 polyclonal antibody (FIG. 5A). As for the experimental part:
as §1

The target is the same in test [4]. The test can be described thus: immunoprecipitation with KNTC2 polyclonal antibody from LC319 cells transfected with pCAGGSn3Fc-CDCA1, anti-FLAG M2 immunoblot. On the procedure:
(f) Identification of CDCA1-associated Proteins: Cell extracts from lung-cancer cell line LC319 were pre-cleared by incubation at 4° C. for 1 hour with 50 μl of protein A and G-agarose beads, in final volumes of 2 ml of immunoprecipitation buffer (0.5% NP-40, 50 mM Tris-HCl, 150 mM NaCl) in the presence of proteinase inhibitor. After centrifugation at 1,000 rpm for 5 min at 4° C., the supernatants were incubated at 4° C. with anti-CDCA1 polyclonal antibody, anti-KNTC2 polyclonal antibody, or normal rabbit IgG for 2 hours. After incubation at 4° C. for 1 hour with 50 μl of protein A and G-agarose beads, the beads were collected from each sample by centrifugation at 5,000 rpm for 2 min and washed six times with 1 ml of immunoprecipitation buffer, and the washed beads were re-suspended in 50 μl of Laemmli sample buffer and boiled for 5 min before the proteins were separated on 5-10% SDS PAGE gels (BIO RAD). After electrophoresis, the gels were stained with silver. […] The nucleotide sequence of each cDNA clone was determined with an ABI Prism 3700 DNA sequencer (Applied Biosystems, Foster City, Calif.), using T3, T7, or synthetic oligonucleotide primers according to the manufacturer's instructions. […]

B1: CDCA1 149-306 deletion construct with C-terminal FLAG sequence (other)
chain: ADKMQQLNAAHQEALMKLERLDSVPVEEQEEFKQLSDGIQELQQSLNQDFHQKTIVLQEGNSQKKSNISEKTKRLNELKLLVVSLKEIQESLKTKIVDSPEKLKNYKEKMKDTVQKLKNARQEVVEKYEIYGDSVDCLPSCQLEVQLYQKKIQDLSDN
notes: Expressed by transfection in LC319 cells; also called control; not shown: C-terminal FLAG tag of the pCAGGS vector
Take B1: the binding result in test [1] was “no binding”.

B2: CDCA1 319-367 deletion construct with C-terminal FLAG sequence (other)
chain: NLEDQIESDESELKKLKTEENSFKRLMIVKKEKLATAQFKINKKHEDVK
notes: Expressed by transfection in LC319 cells; not shown: C-terminal FLAG tag of the pCAGGS vector
On to B2, for which the binding result in test [2] is “no binding”.

B3: CDCA1 200-464 deletion construct with C-terminal FLAG sequence (other)
chain: QKTIVLQEGNSQKKSNISEKTKRLNELKLLVVSLKEIQESLKTKIVDSPEKLKNYKEKMKDTVQKLKNARQEVVEKYEIYGDSVDCLPSCQLEVQLYQKKIQDLSDNREKLASILKESLNLEDQIESDESELKKLKTEENSFKRLMIVKKEKLATAQFKINKKHEDVKQYKRTVIEDCNKVQEKRGAVYERVTTINQEIQKIKLGIQQLKDAAEREKLKSQEIFLNLKTALEKYHDGIEKAAEDSYAKIDEKTAELKRKMFKMST
notes: Expressed by transfection in LC319 cells; also called dominant-negative fragment of CDCA1; not shown: C-terminal FLAG tag of the pCAGGS vector
With B3, the binding result in test [3] is on record as “binds”.

B4: CDCA1 1-148 deletion construct with C-terminal FLAG sequence (other)
chain: METLSFPRYNVAEIVIHIRNKILTGADGKNLTKNDLYPNPKPEVLHMIYMRALQIVYGIRLEHFYMMPVNSEVMYPHLMEGFLPFSNLVTHLDSFLPICRVNDFETADILCPKAKRTSRFLSGIINFIHFREACRETYMEFLWQYKSS
notes: as for B2
B4: in test [1], the binding result is recorded as “no binding”.

B5: CDCA1 1-464 (full length), exogenous, expressed from pCAGGSn3Fc-CDCA1 in LC319 cells (other, not shown: small tags and cut ends)
chain: METLSFPRYNVAEIVIHIRNKILTGADGKNLTKNDLYPNPKPEVLHMIYMRALQIVYGIRLEHFYMMPVNSEVMYPHLMEGFLPFSNLVTHLDSFLPICRVNDFETADILCPKAKRTSRFLSGIINFIHFREACRETYMEFLWQYKSSADKMQQLNAAHQEALMKLERLDSVPVEEQEEFKQLSDGIQELQQSLNQDFHQKTIVLQEGNSQKKSNISEKTKRLNELKLLVVSLKEIQESLKTKIVDSPEKLKNYKEKMKDTVQKLKNARQEVVEKYEIYGDSVDCLPSCQLEVQLYQKKIQDLSDNREKLASILKESLNLEDQIESDESELKKLKTEENSFKRLMIVKKEKLATAQFKINKKHEDVKQYKRTVIEDCNKVQEKRGAVYERVTTINQEIQKIKLGIQQLKDAAEREKLKSQEIFLNLKTALEKYHDGIEKAAEDSYAKIDEKTAELKRKMFKMST
notes: It is treated as the same molecule here; also called exogenous CDCA1
As for B5, the binding result in test [4] is “binds”.

B6: CDCA1 277-367 deletion construct with C-terminal FLAG sequence (other)
chain: EIYGDSVDCLPSCQLEVQLYQKKIQDLSDNREKLASILKESLNLEDQIESDESELKKLKTEENSFKRLMIVKKEKLATAQFKINKKHEDVK
notes: as for B2
For the molecule B6, the binding result in test [2] was “no binding”.
